Test results published in patent US20260139017A1, “COMPOSITIONS AND METHODS USING REELIN IN ALZHEIMER'S DISEASE” (The General Hospital Corporation, priority 2022, published 2026).

What was measured:
pDAB1 (Tyr232) [1] = test: HRECs treated 5 minutes with HEK 293T-derived mini-RELN media, pDAB1 western blot; format: cell-based, human; conditions: HEK 293T-derived media 1:1, 1:4, 1:14, 5 minutes
Procedure: The effect of in vitro treatment with RELN or miniRELN protein was also evaluated. HRECs were cultured in EBM-2 media enriched with EGM-2 Single Quots (Lonza) at 37° C. and 5% CO2 and experimentally tested at passage 7. 24 h prior experiment, cells were plated on a 6-well plate at 500,000 cells/mL. Two hours before the experiment, the cells were washed with PBS to remove residual growth media and then incubated with a starving media including EBM-2, 1% GlutaMax+0,2% Normicin. Treatments was conducted using media derived from HEK 293T cells transiently transfected for 24 h with different mini-RELN constructs in the presence of Lipofectamine 2000. HEK-derived Lipofectamine2000-media was used as negative control. HEK 293T-derived media was tested at different ratio 1:1, 1:4, and 1:14 (Transfected media:Starving media). Each treatment was incubated for 5 minutes and cells were subsequently harvested in lysis buffer was applied constituted of RIPA (Cell signaling), proteases inhibitors (cOmplete™, Mini, EDTA-free Protease Inhibitor Cocktail, Roche), phosphatases inhibitors (PhosSTOP, Roche), 1 μL of proteasome inhibitor MG-132 10 mM, 1% Triton X 100. The lysates were scraped and centrifugated at 15000 rpm for 10 minutes at 4° C. Total protein levels were quantified via BCA assay. […] We detected pDAB1 (Tyr232; 1:1000, rabbit, #3325 Cell signaling), and Beta actin (1:5000, mouse, #66009-1-Ig, Proteintech. Antibodies were diluted using Intercept® (TBS) Blocking Buffer and incubated overnight at 4C under gentle shaking. Prior secondary antibody incubation, membranes were washes 2 times using TBS-T for 10 minutes. As secondary antibodies we used IR Dye 800n CW Goat-anti-Rabbit (925-32211, Licor) and IR Dye 680 CW Goat-anti-Mouse (925-68070, Licor) both diluted 1:10000 in blocking buffer for 1 h at room temperature under gentle shaking. Membranes were washed three times with TBS-T prior IR detection using Odyssey imager. To quantify the results, each band was quantified using ImageJ and data expressed as pDAB1:βActin ratio normalized to the control. […]

pDAB1 (Tyr232) [2] = test: HRECs treated 5 minutes with recombinant mini-RELN, pDAB1 western blot; format: cell-based, human; conditions: 5 minutes, 4 ug/mL recombinant protein
Procedure: For in vitro screening of constructs using recombinant mini-RELN on HRECs, the cells were cultured in EBM-2 media enriched with EGM-2 Single Quots (Lonza) at 37° C. and 5% CO2 and experimentally tested at passage 7. 24 h prior experiment, cells were plated on a 6-well plate at 500,000 cells/mL. Two hours before the experiment, the cells were washed with PBS to remove residual growth media and then incubated with a starving media including EBM-2, 1% GlutaMax+0.2% Normicin. Treatments was conducted using recombinant mini RELN constructs obtained from Innovagen and Recombinant Mouse Reelin Protein from R&D systems (3820-MR-025/CF). Each treatment was incubated for 5 minutes at 4 ug/mL concentration and cells were subsequently harvested in lysis buffer was applied constituted of RIPA (Cell signaling), proteases inhibitors (cOmplete™, Mini, EDTA-free Protease Inhibitor Cocktail, Roche), phosphatases inhibitors (PhosSTOP, Roche), 1 μL of proteasome inhibitor MG-132 10 mM, 1% Triton X 100. The lysates were scraped and centrifugated at 15000 rpm for 10 minutes at 4° C. Total protein levels were quantified via BCA assay. For Western Blotting, 3.5 ug protein homogenates were prepared under reducing and denaturing conditions using Laemmli buffer enriched with 10 mM DTT and 5 min boiling. Samples were electrophoretically separated in a 4-20% Gel at 90V and protein transferred to a PVDF membrane using iBlot™ 2 Dry Blotting System. The membrane was blocked using Intercept® (TBS) Blocking Buffer for 2 hours. We detected pDAB1 (Tyr232; 1:1000, rabbit, #3325 Cell signaling), and total protein staining (Licor). Antibodies were diluted using Intercept® (TBS) Blocking Buffer and incubated overnight at 4C under gentle shaking. Prior secondary antibody incubation, membranes were washed 2 times using TBS-T for 10 minutes. As secondary antibodies we used IR Dye 800n CW Goat-anti-Rabbit (925-32211, Licor) diluted 1:10000 in blocking buffer for 1 h at room temperature under gentle shaking. Membranes were washed three times with TBST-T prior IR detection using Odyssey imager. To quantify the results, each band was quantified using ImageJ and data expressed as pDABL:total protein ratio normalized to the control.

Molecule	pDAB1 / Dab1 signaling activation (pDAB1 (Tyr232) [1])	pDAB1 levels (pDAB1 (Tyr232) [2])
IL2ss-6xHis-hReelin R3-R6 CT-H3447R (protein) MYRMQLLSCIALSLALVTNSGGHHHHHHGGSRFSSTAPVLLQYSHDAGMSWFLVKEGCYPASAGKGCEGNSRELSEPTMYHTGDFEEWTRITIVIPRSLASSKTRFRWIQESSSQKNVPPFGLDGVYISEPCPSYCSGHGDCISGVCFCDLGYTAAQGTCVSNVPNHNEMFDRFEGKLSPLWYKITGAQVGTGCGTLNDGKSLYFNGPGKREARTVPLDTRNIRLVQFYIQIGSKTSGITCIKPRTRNEGLIVQYSNDNGILWHLLRELDFMSFLEPQIISIDLPQDAKTPATAFRWWQPQHGKHSAQWALDDVLIGMNDSSQTGFQDKFDGSIGGGTLDSRKWLLHPGGTKMPVCGSTGDALVFIEKASTRYVVSTDVAVNEDSFLQIDFAVSCSVTDSCYAIELEYSVDLGLSWHPLVRDCLPTNVECSRYHLQRILVSDTFNKWTRITLPLPPYTRSQATRFRWHQPAPFDKQQTWAIDNVYIGDGCIDMCSGHGRCIQGNCVCDEQWGGLYCDDPETSLPTQLKDNFNRAPSSQNWLTVNGGKLSTVCGAVASGMALHFSGGCSRLLVTVDLNLTNAEFIQFYFMYGCLITPNNRNQGVLLEYSVNGGITWNLLMEIFYDQYSTGGSGGSTRKQNYMMNFSRQHGLRRFYNRRRRSLRRYP	efficacy	increased pDAB1 levels
Il2ss-flagMini-RELNFspCR50R5-6CtermH3447R (protein) MYRMQLLSCIALSLALVTNSGGDYKDDDDKTGGAAGYYPRFSPFFFLCTHHGELEGDGEQGEVLISLHIAGNPTYYVPGQEYHVTISTSTFFDGLLVTGLYTSTSVQASQSIGGSSAFGFGIMSDHQFGNQFMCSVVASHVSHLPTTNLSFIWIAPPAGTGCVNFMATATHRGQVIFKDALAQQLCEQGAPTDVTVHPHLAEIHSDSIILRDDFDSYHQLQLNPNIWVECNNCETGEQCGAIMHGNAVTFCEPYGPRELITTGLNTTTASVLQFSIGSGSCRFSYSDPSIIVLYAKNNSADWIQLEKIRAPSNVSTIIHILYLPEDAKGENVQFQWKQENLRVGEVYEACWALDNILIINGSRGGQTNATRFRLWQPYNNGKKEEIWIVDDFIIDGNNVNNPVMLLDTFDFGPREDNWFFYPGGNIGLYCPYSSKGAPEEDSAMVFVSNEVGEHSITTRDLNVNENTIIQFEINVGCSTDSSSADPVRLEFSRDFGATWHLLLPLCYHSSSHVSSLCSTEHHPSSTYYAGTMQGWRREVVHFGKLHLCGSVRFRWYQGFYPAGSQPVTWAIDNVYIGPQCEEMCNGQGSCINGTKCICDPGYSGPTCKISTKNPDFLKDDFEGQLESDRFLLMSGGKPSRKCGILSSGNNLFFNEDGLRMLMTRDLDLSHARFVQFFMRLGCGKGVPDPRSQPVLLQYSLNGGLSWSLLQEFLFSNSSNVGRYIALEIPLKARSGSTRLRWWQPSENGHFYSPWVIDQILIGGNISGNMVLEDDFTTLDSRKWLLHPGGTKMPVCGSTGDALVFIEKASTRYVVSTDVAVNEDSFLQIDFAVSCSVTDSCYAIELEYSVDLGLSWHPLVRDCLPTNVECSRYHLQRILVSDTFNKWTRITLPLPPYTRSQATRFRWHQPAPFDKQQTWAIDNVYIGDGCIDMCSGHGRCIQGNCVCDEQWGGLYCDDPETSLPTQLKDNFNRAPSSQNWLTVNGGKLSTVCGAVASGMALHFSGGCSRLLVTVDLNLTNAEFIQFYFMYGCLITPNNRNQGVLLEYSVNGGITWNLLMEIFYDQYSKPGFVNILLPPDAKEIATRFRWWQPRHDGLDQNDWAIDNVLISGSASTRKQNYMMNFSRQHGLRRFYNRRRRSLRRYP	more robust compared to controls and compared to 233A	
